Data set [1] addresses T1, TGFβ2 (transforming growth factor beta 2) (Homo sapiens) (UniProt P61812).
T1 sequence: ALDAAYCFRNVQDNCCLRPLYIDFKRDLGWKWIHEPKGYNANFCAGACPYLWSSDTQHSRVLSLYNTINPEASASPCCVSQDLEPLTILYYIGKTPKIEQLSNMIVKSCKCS
The data set can be described thus: filter. The following applies: 2'-F C and U.

Data set [2] has as its target T2, TGFβ3 (transforming growth factor beta 3) (Homo sapiens) (UniProt P10600).
T2 sequence: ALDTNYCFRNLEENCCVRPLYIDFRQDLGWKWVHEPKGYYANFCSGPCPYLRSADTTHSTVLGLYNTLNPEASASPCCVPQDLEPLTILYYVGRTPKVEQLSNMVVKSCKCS
Put plainly: filter. The note with it: 2'-F C and U; round 0 pool.

Consider “GGGAGGACGAUGCGGNNNNNNNNNNNNNNNNNNNNNNNNNNNNNNNNNNNNNNNNCAGACGACUCGCCCGA [round 0 40N7 pool]”, for which the Kd was over 10 µM in data set [1] (round 0 pool, printed as >10 [M) and over 10 µM in data set [2]. “GGGAGGACGAUGCGGNNNNNNNNNNNNNNNNNNNNNNNNNNNNNNNNNNCAGACGACUCGCCCGA [34N7.21a-21 biased round 0 pool]” yielded a Kd in data set [1] (biased round 0 pool, protein excess) of 0.87 µM.

In general, Kd refers to the free concentration of one partner at which half of the binding sites on the other are occupied at equilibrium, for simple one-to-one binding. High values mean weaker binding, low ones tighter binding.

These data come from patent US20040258656.
